# Data as given in patent US20050203281A1, “Production of recombinant fragments of muscle acetylcholine receptor and their use for ex vivo immunoadsorption of anti-ch receptor antibodies from myasthenic patients” (priority 2002, published 2005).
# “Also recorded” adds a separate entry of the source. Like-named read-outs stand apart in the source and are kept apart here.
# B1: delta1-224: N-terminal extracellular domain of human muscle AChR delta subunit expressed in Pichia pastoris, FLAG epitope (protein)
# chain: DYKDDDDKLNEEERLIRHLFQEKGYNKELRPVAHKEESVDVALALTLSNLISLKEVEETLTTNVWIEHGWTDNRLKWNAEEFGNISVLRLPPDMVWLPEIVLENNNDGSFQISYSCNVLVYHYGFVYWLPPAIFRSSCPISVTYFPFDWQNCSLKFSSLKYTAKEITLSLKQDAKENRTYPVEWIIIDPEGFTENGEWEIVHRPARVNVDPRAPLDSPSRQDITFYLIIRRK
# modifications: glycosylated
# B2: alpha1-210 (protein)
# chain: SEHETRLVAKLFKDYSSVVRPVEDHRQVVEVTVGLQLIQLINVDEVNQIVTTNVRLKQQWVDYNLKWNPDDYGGVKKIHIPSEKIWRPDLVLYNNADGDFAIVKFTKVLLQYTGHITWTPPAIFKSYCEIIVTHFPFDEQNCSMKLGTWTYDGSVVAINPESDQPDLSNFMESGEWVIKESRGWKHSVTY
# modifications: glycosylated at residue 141
# B3: alpha 1-210: extracellular domain of human alpha AChR with ApoE leader and six histidines, expressed in HEK293 cells by SFV vector (protein)
# chain: B2 chain
# modifications: glycosylated at residue 141
# Key:
# [1] = test system: alpha1-210; test: Delta1-224 studied together with alpha1-210 in 125I-alpha-BTX binding experiments; design: species or system human
# [2] = test system: anti-AChR antibodies from MG sera; test: Immunoadsorption of anti-AChR antibodies from MG sera by CNBr-Sepharose-immobilized subunit domains, RIA with human AChR from TE671 cells; type: binding; conditions: for percentage of anti-AChR antibodies eliminated, best-adsorbed sera: 13 of 64 (20%) MG sera, 2.5 ul serum
# Procedure: FIG. 6 illustrates the immunoadsorption of anti-AChR antibodies from MG sera using immobilized alpha1-210 (black bars), gamma1-218 (grey bars) and epsilon1-219 (blank bars). Each subunit has been expressed in the yeast Pichia pastoris and the purified proteins have been covalently immobilized on CNBr-Sepharose beads. 64 MG positive sera were assayed for binding to human AChR after incubation with alpha1-210 immobilized on CNBr-Sepharose (together with BSA) or with just BSA immobilized on the same insoluble matrix. 2.5 ul of each MG patient serum were incubated with 0.2 ug immobilized alpha1-210 mixed with BSA or the same amount of BSA at […] for 2-3h (in a total volume of 0.16 ml) followed by centrifugation. Samples of the supernatants, each containing an amount corresponding to 0.9 ul of the treated MG sera were subsequently used in a typical RIA MG diagnostic test (Lindstrom et al., Meth. Enzymol. 74, 432460, 1981) with human AChR from TE671 cells. The percentage of immunoadsorption was estimated as described in the Example 3. Samples were processed in duplicates. Results shown (black bars) are an average of two experiments. Sera are sorted in decreasing percentage of immunoadsorption to immobilized alpha1-210.
# FIG. 7 illustrates the immunoadsorption of anti-AChR antibodies from MG sera against immobilized alpha1-210 (black bars), gamma1-218 (gray bars) and a mix of both immobilized alpha1-210 and gamma1-218 (hatched bars). 9 MG sera were assayed for binding to human AChR after incubation of 20 fmoles anti-AChR MG antibodies with alpha1-210 (1 ug), or gamma1-218 (1 ug) or alpha1-210/gamma1-218 mix (containing 1 ug of each subunit) immobilized on CNBr-Sepharose. Incubation with just BSA immobilized to the same insoluble matrix served as a control to calculate the percent immunoadsorption against each of the subunits and the mix of both. After incubation with the Sepharose-immobilized proteins, sera were screened in a typical RIA experiment using TE671 AChR. The percentage of immunoadsorption was estimated as described in the Example 3. Samples were processed in duplicates. Results shown are an average of two experiments.
# Immunoadsorption of MG autoantibodies by immobilized alpha1-210. 0.1 mg alpha1-210 mixed with 1.4 mg BSA was covalently bound to 0.5 gr CNBr-Sepharose according to manufacturer's protocol (Amersham). BSA was simply added to increase the protein/Sepharose ratio because the ratio of recombinant protein to Sepharose beads used would otherwise be too small; BSA is not necessary for larger scale experiments. In parallel, 1.5 mg BSA was bound to the same amount of CNBr-Sepharose under the same conditions as control. 2.5 ul MG patient sera were incubated with 0.2 ug immobilized alpha1-210 mixed with BSA, or the same amount of immobilized BSA alone, at 4° C. for 2-3 h (in a total volume of 0.16 ml) followed by centrifugation for bead precipitation. Samples of the supernatants, each containing an amount corresponding to 0.9 ul of these treated MG sera were subsequently used in a typical RIA MG diagnostic test (Lindstrom et al., Meth. Enzymol. 74, 432460, 1981) with human AChR from TE671 cells. The percentage of immunoadsorption was estimated as the ratio between the reduction in immunoprecipitated radiolabeled human AChR after incubation with alpha1-210 and the immunoprecipitated radiolabeled human AChR without incubation with alpha1-210 (incubation with plain immobilized BSA). 64 MG positive sera were assayed for binding to human AChR after incubation with immobilized alpha1-210 or BSA. […] We also tested immunoadsorption of the same set of MG sera by incubating 0.2 ug immobilized alpha1-210 with a fixed amount of anti-AChR antibodies (20 fmoles in variable volumes of MG sera depending on their titer) rather than a fixed serum volume.
# Immunoadsorption of MG autoantibodies by immobilized gamma1-218 or epsilon1-219 domains. […]
# [3] = test system: anti-AChR autoantibodies from MG sera; test: Binding of MG patients' autoantibodies to 125I-alpha-BTX-labeled alpha1-210 and hybrid AChR (RIA); design: species or system human
# Procedure: 50 MG-positive sera were assayed for binding to alpha1-210 and to a hybrid AChR molecule (HaTbgd) containing human alpha subunit and Torpedo beta, gamma and delta subunits, labeled with ^125I-alpha-BTX. MG sera binding to ^125I-alpha-BTX-alpha1-210 were plotted versus binding to ^125I-alpha-BTX-HaTbgd in a logarithmic scale. […] Samples were processed in duplicates.
# 70 human sera were screened: 50 MG and 20 healthy controls (5 ul of human sera/sample).
# [4] = test system: 125I-alpha-BTX; type: binding
# Procedure: FIG. 2 illustrates the binding of alpha-BTX to alpha1-210 of FIG. 1. (A) Scatchard plot analysis of ^125I-alpha-BTX binding to alpha1-210 fragment. Culture supernatants containing alpha1-210 (40 microliters, 40 ul) were incubated with various concentrations of ^125I-alpha-BTX in 10 ul of PBS-0.2 % bovine serum albumin (BSA), then, after 3 hours incubation at 40° C., the samples were filtered through Whatman DE81 filters, and the bound radioactivity measured on a gamma counter (filter assay). Samples were processed in duplicates. […] (B) The specific binding of the ^125I-alpha-BTX to alpha1-210 fragment was studied in competition experiments involving the simultaneous addition of increasing concentrations of unlabeled toxin. Samples were processed in duplicates. Binding of labeled alpha-BTX in the absence of unlabeled alpha-BTX was taken as the 100% level. (C) Effect of deglycosylation on ^125I-alpha-BTX binding to alpha1-210. In vitro deglycosylation was performed using N-glycosidase F treatment. Aliquots at various reaction time-points were assayed for ^125I-alpha-BTX binding in filter assay experiments. Samples were processed in duplicates (dark columns, N-glycosidase F treatment; light columns, control treatment).
# To study the binding of alpha-BTX to alpha1-210 as an indication of correct protein folding, we tested both crude culture supernatants and the purified protein in “filter assay” experiments: Fifty nanograms of purified alpha1-210 or […] of culture supernatant was incubated at […] for 3 h with various concentrations of ^125I-alpha-BTX (specific activity 800,000 cpm/pmole) in a final volume of […] of PBS buffer, pH 7.5, 0.2% BSA. The samples were then diluted with 1 ml of 0.5% Triton X-100 in 20 mM Tris buffer, pH 7.5 (Triton buffer) and immediately filtered through two Whatman DE81 filters prewashed with Triton buffer. The filters were then washed twice with 1 ml of Triton buffer and the bound radioactivity measured on a gamma-counter. Samples without alpha1-210 were used to measure non-specific binding. Specific binding of alpha-BTX was also studied in competition experiments by addition of various amounts of unlabeled alpha-BTX to the sample.
# [5] = test system: 125I-alpha-BTX; test: 125I-alpha-BTX filter assay of alpha domain expressed in HEK293 cells (SFV vector); type: binding; conditions: expressed in HEK293 cells with recombinant SFV-1 vector
# Procedure: […] Approximately 2×10^6 transfected cells were allowed to express the protein of interest. Cells and medium supernatant were collected after two days. Cells were washed in cocktail buffer (1×PBS pH7.4 with PMSF. 1 mM, aprotinin 5units/ml, leupeptin 5 micrograms/ml, iodoacetamide 1 mM). The medium supernatant (12 ml) was concentrated […] to a final volume of 2.5 ml and dialysed against PBS buffer at 4° C. To extract the receptor, the cell pellet was resuspended in 0.5 ml of cocktail-2% Triton-X100 and the mixture was left at 4° C. with mild agitation. The mixture was subsequently centrifuged at 15000 g for 15 min and the supernatant was tested for ^125I-alpha-BTX binding. The filter assay technique (as described in Example 1) was used to test whether the expressed protein was secreted in the medium supernatant or retained within the cell (in either the cytoplasm or the membrane).
# Having established that the cloned product is functional, the recombinant SFV plasmid is linearized at SpeI site, purified and used in an in vitro mRNA synthesis using the mMESSAGE mMACHINE kit (Ambion Inc.) Approximately 20 micrograms of mRNA produced is obtained and used to electroporate 0.7 ml of 10^7 cells/ml HEK293 cells. We only use the recombinant SFV-1 vector without the helper plasmid at this stage. Both the cells and the supernatant are collected two days post-electroporation. […]
molecule,measurement,setting,value
B1,interaction between recombinant subunit domains,[1],temporary weak interaction
same,immunoadsorption of anti-AChR antibodies (in words),[2]; immobilized on Sepharose-CNBr,lower but very significant percentages; also recorded: large fractions
B2,proportion of MG sera with high anti-alpha titers that recognized the protein,[3],66%
same,immunoadsorption with fixed amount of anti-AChR antibodies compared with fixed serum volume,"[2]; 0.2 ug immobilized protein, 20 fmoles antibodies in variable serum volumes",identical with the above immunoadsorption results
same,"percentage of anti-AChR antibodies eliminated, best-adsorbed sera",[2]; 0.2 ug immobilized protein,more than 60%
same,"percentage of anti-AChR antibodies eliminated, best-adsorbed sera","[2]; 0.2 ug immobilized protein, listed as immobilized alpha domain",more than 60%
same,average percentage of anti-AChR antibodies eliminated in all sera tested,[2]; all sera tested,37%
same,"percentage of immunoadsorption, intermediate sera",[2]; another 24 sera (37%) of 64,20-60%
same,immunoadsorption of serum no. 3,"[2]; serum no. 3, 1 ug of each immobilized subunit, 20 fmoles antibody",54%
same,amount of antibody eliminated by 1 ug immobilized protein,"[2]; titration experiments, 0.25 ml serum of titer 5 nM",≥ 1250 fmol
same,volume of MG serum from which 1 ug immobilized protein eliminates the anti-alpha antibodies,"[2]; titration experiments, MG serum of titer 5 nM",at least 0.25 ml
same,125I-alpha-BTX binding after deglycosylation,[4],practically totally lost; also recorded: markedly impaired
same,binding of 125I-alpha-BTX (in words),[4],high affinity
same,Kd,"[4]; read-out: average Kd of 125I-alpha-BTX binding, series of experiments",5.1 ± 2.4 nM
same,Kd,"[4]; read-out: estimated Kd of 125I-alpha-BTX binding, representative experiment",3.3 nM
B3,ability to bind 125I-alpha-BTX,[5],good ability to bind
